This assay concerns the target MBP::PP1β (UniProt P62140 1-327). Nature of the assay: pull-down.

Two molecules from doi:10.1101/569459 (bioRxiv, 2019) can be followed below.

Chain of MBP::PP1β (P62140 whole entry): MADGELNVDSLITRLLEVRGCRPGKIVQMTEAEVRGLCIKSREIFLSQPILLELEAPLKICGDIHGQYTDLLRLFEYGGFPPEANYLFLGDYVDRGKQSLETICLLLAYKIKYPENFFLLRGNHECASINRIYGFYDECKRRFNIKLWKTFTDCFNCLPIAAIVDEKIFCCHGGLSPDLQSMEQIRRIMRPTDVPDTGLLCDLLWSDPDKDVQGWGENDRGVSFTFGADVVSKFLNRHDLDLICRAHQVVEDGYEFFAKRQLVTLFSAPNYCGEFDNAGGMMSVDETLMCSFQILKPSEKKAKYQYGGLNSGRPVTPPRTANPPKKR

B1: GST::MKLP1_(620-858) (wild type) (domain or fragment, UniProt Q02241-2 620-856, looked up)
chain: ETTMKWEKECERRVAAKQLEMQNKLWVKDEKLKQLKAIVTEPKTEKPERPSRERDREKVTQRSVSPSPVPLLFQPDQNAPPIRLRHRRSRSAGDRWVDHKPASNMQTETVMQPHVPHAITVSVANEKALAKCEKYMLTHQELASDGEIETKLIKGDIYKTRGGGQSVQFTDIETLKQESPNGSRKRRSSTVAPAQPDGAESEWTDVETRCSVAVEMRAGSQLGPGYQHHAQPKRKKP
Regarding B1, the binding result is listed as “binds”.

B2: GST::MKLP1_(620-858) AQA mutant (domain or fragment, UniProt Q02241-2 620-856, looked up)
chain: ETTMKWEKECERRVAAKQLEMQNKLWVKDEKLKQLKAIVTEPKTEKPERPSRERDREKVTQRSVSPSPVPLLFQPDQNAPPIRLRHRRSRSAGDRWVDHKPASNMQTETVMQPHVPHAITVSVANEKALAKCEKYMLTHQELASDGEIETKLIKGDIYKTRGGGQSAQATDIETLKQESPNGSRKRRSSTVAPAQPDGAESEWTDVETRCSVAVEMRAGSQLGPGYQHHAQPKRKKP
Take B2: the binding result is given as “binds”.
